# How the values were obtained:
# [1] = ELISA assay on laminarin-coated plates; format: binding
# Protocol: The activity of the purified antibody was then tested by ELISA assay. 96-well plates were coated with 50 μg/ml Laminarin (Sigma-Aldrich, L9634) in 0.05 M carbonate buffer pH 9.6 overnight at 4° C. Nonspecific interactions were blocked with 100 μL/well blocking solution, 3% (w/v) BSA in PBS-Tween 20 (8 g/L NaCl, 0.2 g/L KH2PO4, 2.9 g/L Na2HPO4·12 H2O, 0.2 g/L KCI, 0.05% (v/v) Tween 20, pH 7.4) at 37° C. for 1 h. The plates were then incubated with decreasing concentrations of hmAb 2G8_first approach (comparative purpose) (from 3.12 μg/ml to 0.003 μg/ml, each concentration was tested in triplicate) in blocking solution for 2 h at 37° C. At the same temperature and for the same time, 100 μL Goat anti-human-HRP diluted 1:1000 in blocking solution was poured in each well. After every single passage the plates were washed 5 times with PBS-Tween 20. To reveal the binding, 100 μl of 5 mg-ABTS tablet (Roche Diagnostics) dissolved in 12 ml of sodium citrate (0.05 M, pH 3) and supplemented with 1:1000 dilution hydrogen peroxide (Carlo Erba) was added and after 15, 30, 45 and 60 min the absorbance at 405 nm was measured. For the whole measuring time the plates were left in the dark. IC50 analysis of ELISA test was performed with Prism. The TEST was performed in triplicate.
# The surnatants collected from the obtained humanised mAb were tested in ELISA test.
# Four supernatants from hmAb according to the invention (H5/K3; H5/K1; H5/K7; H5/K5) were purified to confirm the data. 8 scalar dilutions, starting from 5 μg/ml, were tested.
# The purified humanised mAb 2G8 H5/K1 was then tested in an ELISA assay using laminarin as a target.
# [2] = test system: β-1,3-glucans on the surface of C. auris; experiment: Recognition of C. auris by flow cytometry and confocal microscopy; format: cell-based; details: 12 μg/ml mAb
# Protocol: From an overnight inoculum, C. auris cells were washed with RPMI+MOPS (0.165 M, pH 7) and 3.0×10^6 cells were pelleted, suspended in Phosphate buffered saline (PBS) containing 3% (w/v) BSA (Bovine Serum Albumin—Sigma Aldrich) and put in contact with 12 μg/ml of the humanised mAb 2G8 for 1 hour at room temperature. The cells were then washed with PBS and marked with anti-human IgG FITC antibody 1:150 in PBS+3% BSA for 1 hour. The cells were then washed and fixed with paraformaldehyde 4% in PBS 1 hour at 4° C. After fixing and washing with PBS, the pellet was suspended in 400 μl of PBS and splitted in two tubes. The samples were analysed using flow cytometry and confocal microscopy, respectively.
# A Flow cytometer (FACScanto II, BDBioscences, Erembodegem, Belgium), equipped with three lasers (488 nm, 633 nm, 405 nm) was employed to collect and quantitate FITC fluorescence from different samples. Both autofluorescence and fluorescence derived from a specific binding of FITC-conjugated secondary Ab were quantitated by Flow Cytometry. […] The histogram CTRL evaluates the background from aspecific binding of FITC-conjugated secondary Ab, enabling to fix the threshold defining the positivity for the humanised mAb H5/K1 (treated). 97% of events express the antigen (treated panel). The expression was precisely quantitated by MFI values: the fold of increase is 164, when compared to control (FIG. 12B). Light grey events in FIG. 12A histograms represent cells outside the scatter area mainly occupied by the cells: i.e. aggregates or increase in cell size (as during senescence).
# [3] = test system: C. auris adhesion to HeLa cells; experiment: Adhesion assay, fungal adhesion to HeLa cell monolayer; format: cell-based; details: 12 μg/ml, HeLa:yeast 1:1, 1 hour
# Protocol: In order to investigate the protective effect of hmAb 2G8 H5/K1 in preventing fungal adhesion to human cells commonly known to be preferred targets, C. auris cells were left adhering to a monolayer of HeLa cells together with the humanised mAb H5/K1, to reproduce an infection-medication scenario. 1.0×10^4 cervical cancer cells HeLa were suspended in RPMI+*10% FBS (pH 7) and plated in a 96-well plate for 2 hours at 37° C.+5% CO2. After incubation, the cells not attached at the bottom of the wells were washed away and 1.0×10^4 cells of C. auris suspended in RPMI+MOPS (0.165 M, pH 7) were added to reach a 1:1 ratio HeLa:yeast cells. Together with the yeast, 12 μg/ml of the humanised mAb 2G8 were added. PBS was used in the control sample. The plate was left at 37° C. for 1 hour and after washing 5 times, HeLa cells were lysed with PBS 0.1% Triton X100 (15 min. RT). The suspension was plated in PDA plate and incubated at 37° C. for 48 hours. This experiment has been repeated two times in triplicate.
# C. auris = experiment: Growth inhibition assay (CFU count); format: cell-based; details: 18 h at 37° C.
# Protocol: The growth inhibitory activity of humanised mAb 2G8 H5/K1 was tested as reported in W. Magliani et al, Nature Biotech. 1997; 15:155-158 with some modifications. In brief, 150-250 cells of C. auris in 10 μl of PBS were incubated with 100 μl of humanised mAb 2G8 at 250, 100 and 50 μg/ml (each concentration was tested in triplicate) and incubated for 18 h at 37° C. The inhibition was evaluated by seeding the yeast on PDA. The plates were incubated at 37° C. for 48 h and the inhibition was calculated by count of the CFU. The assay was performed in triplicate.
molecule,measurement,setting,value
"hmAb 2G8 H5/K1: humanised anti β-1,3 glucan mAb; heavy chain variable region H5 (SEQ ID NO: 22), light chain variable region K1 (SEQ ID NO: 15) (antibody, V domains shown, VH-H5; VL-K1) VH: QVQLQQSGAELKKPGASVKISCKASGYTLSSYWLEWVRQRPGQGLEWIGEILPGSGSTNYNEKFKGRATFTADTSTNTAYMELSSLTSEDSAVYYCAREGWYFDVWGQGTTVTVSS VL: DVVMTQSPLSLPVTLGQPASISCRSSQSLLYSNGNTHLNWFQQRPGQSPRRLIYLVSNRDSGVPDRFSGSGSGTDFTLKISRVEAEDVGVYYCVQGTHFPYTFGGGTKLEIK",activity / affinity compared with murine 2G8,[1]; ELISA,performs better than the original murine one
same,Abs 405 nm,[1]; ELISA of supernatants of humanised mAbs,3.48
same,performance in ELISA assay of purified hmAbs,"[1]; purified supernatants, 8 scalar dilutions from 5 μg/ml",best performer
same,binding on confocal images,"[2]; confocal microscopy, FITC signal","recognize and bind β-1,3-glucans on the surface of C. auris"
same,MFI fold of increase compared to control,[2]; flow cytometry,164 fold
same,events expressing the antigen (FITC positive),"[2]; flow cytometry, 1 hour",97%
same,reduction in fungal adhesion to mammalian cells,[3],51.5%
same,inhibition of yeast cell growth,C. auris; 50 μg/ml,over 60%
same,inhibition of yeast cell growth,C. auris; 100 μg/ml,over 70%
same,inhibition of yeast cell growth,C. auris; 250 μg/ml,over 70%

# Reference: US20230406912A1, “HUMANISED ANTIBODIES AGAINST PATHOGENIC FUNGI” (priority 2020, published 2023)
